{"source": "patent US20100035945A1", "about": "“SMALL MOLECULE INHIBITORS OF BACTERIAL DAM DNA METHYLTRANSFERASES” (priority 2004, published 2010)", "key": {"EPEC [1]": {"system": "EPEC", "type": "cell-based, enteropathogenic E. coli (EPEC)", "conditions": "20 μM compound, 3T3 cells infected with EPEC for 6 hrs, FITC-phalloidin/DAPI", "text": "Cell and animal models for pathogenic E. coli infection: Enteropathogenic E. coli (EPEC), which is closely related to enterohemorrhagic E. coli O157:H7 (EHEC), and the closely related mouse pathogen Citrobacter rodentium all cause attaching and effacing (A/E) lesions, characterized by flattening of intestinal microvilli, adherence of the bacteria to epithelial cells, and reorganization of the host actin cytoskeleton, which result in the formation of an actin-filled membrane protrusion or “pedestal” beneath each bacterium (Goosney et al., 2000; Knutton et al., 1989). Pedestal formation is readily detected on cultured fibroblasts (see FIG. 30) exposed to EPEC, and then stained with antibodies that recognized outer membrane proteins in the bacterium (green in FIG. 30) or DAPI, which recognizes bacterial and cellular DNA (blue in FIG. 30), together with phalloidin to recognize actin (red in […]). Pedestals are seen as intense actin staining directly opposed to the bacterium.\n(§1) To determine whether formation of actin pedestals by EPEC could be used to screen for drugs which inhibit virulence, we tested each of the 82 compounds. 3T3 cells were plated in 96 well optical dishes. In this “proof of principle” experiment, each of the 82 compounds was added to a well at 20 μM, and cells were infected with EPEC for 6 hrs. The optical density (OD600) of the supernatant was assessed to estimate effects on bacterial growth, and the cells were fixed and stained with DAPI to recognize bacteria (and cell nuclei), and FITC-phalloidin to recognize filamentous actin. Inhibition of actin pedestals is readily identifiable as the loss of intense actin staining (Kalman et al., 1999; Swimm et al., 2004a). The plate was then scanned visually on an inverted Zeiss 200M fluorescence microscope with a 20× objective. All the wells on the dish were examined with 5 minutes (a high throughput format). At low power, actin pedestals are seen as intense fluorescence apposed to groups of bacteria (see FIG. 31B, arrow)."}, "3T3 cells": {"system": "3T3 cells", "conditions": "20 μM compound", "method": "as §1"}, "EPEC [2]": {"system": "EPEC", "test": "bacterial growth by OD600 of supernatant / growth curves", "type": "cell-based, enteropathogenic E. coli (EPEC)", "conditions": "20 μM compound, listed as G6", "method": "as §1"}, "Dam": {"target": "Dam (Escherichia coli, UniProt P0AEE8)", "conditions": "compound concentration 200 μM; preliminary results, microplate assay"}, "[3]": {"target": "T1, EcoDam DNA adenine methyltransferase (Escherichia coli, UniProt P0AEE8 SEQ:1-274)", "conditions": "2-aminopurine replacing orphan Thy; AdoHcy, Thy flipping"}, "[4]": {"target": "EcoDam R124A R124A (Escherichia coli) (UniProt P0AEE8)", "test": "SPR"}, "[5]": {"target": "EcoDam K9A K9A (Escherichia coli) (UniProt P0AEE8)", "test": "SPR", "conditions": "data not shown"}, "[6]": {"target": "T2, T4Dam DNA adenine methyltransferase (Enterobacteria phage T4, UniProt P04392 SEQ:1-259)", "test": "structure; AdoHcy; nonspecific mode, not at GATC; 3.1 A"}, "[7]": {"target": "T2, T4Dam DNA adenine methyltransferase", "test": "structure; sinefungin; PDB 1YFL; full site with flipped Ade"}, "[8]": {"target": "T2, T4Dam DNA adenine methyltransferase", "test": "structure; AdoHcy; PDB 1YF3; nonspecific and 1/4-site", "conditions": "one-base 5' overhangs"}, "[9]": {"target": "T1, EcoDam DNA adenine methyltransferase", "test": "structure; AdoHcy cognate complex 1.89 A; also sinefungin non-canonical joint complex 1.99 A", "conditions": "tags: His tag", "method": "His Tag-EcoDam is expressed in HMS174(DE3) cells and purified using Ni²⁺-affinity, UnoS, and S75 Sepharose sizing columns. A 0.5-liter induced culture yields approximately 7 mg purified His Tag-EcoDam. In the last purification step and during concentration, cofactor analog AdoHcy or sinefungin is added is added to the protein at approximately 2:1 molar ratio. Concentrated binary complexes are mixed with oligonucleotide duplex (synthesized by New England Biolabs, Inc) at a protein to DNA ratio of about 2:1 and allowed to stand on ice for at least two hours before crystallization. Final protein concentration for crystallization is about 15 mg/mL. In hanging drop crystallization trials with AdoHcy, the ternary complex crystals appeared under low salt conditions of 100 mM KCl, 10 mM MgSO₄, 5-15% PEG400, and 100 mM buffer (MES or HEPES) pH 6.6-7.4 (the cognate crystal form in Table 4).\nStructural determination of the cognate ternary complex proceeded by molecular replacement with the program REPLACE (Tong and Rossmann, 1997) using protein coordinates of a DpnM monomer structure (PDB 2DPM) (Tran et al., 1998). […] Structure of the non-cognate ternary complex was determined using a protein monomer from the refined cognate complex structure as a search model."}}, "note": "“Also recorded” adds a separate entry of the source. Where two headings read alike, the source gives them in different places."}
{"molecule": "O=C1Oc2ccccc2C(=O)/C1=C/Nc1nc(-c2ccc(O)c(O)c2)cs1", "note": "[Compound 78]", "values": [{"measurement": "actin pedestal formation", "setting": "EPEC [1]", "value": "inhibit actin pedestal formation"}, {"measurement": "actin pedestal formation", "setting": "EPEC [1]; listed as G6", "value": "appeared to inhibit actin pedestals; also recorded: No actin pedestals are observed"}, {"measurement": "actin pedestal formation", "setting": "EPEC [1]; listed as NCI 659390", "value": "inhibit actin pedestal formation"}, {"measurement": "gross cytopathological effects on 3T3 cells", "setting": "3T3 cells", "value": "no gross cytopathological effects"}, {"measurement": "effect on bacterial growth (OD600)", "setting": "EPEC [2]", "value": "did not affect bacterial growth; also recorded: no effect on bacterial growth"}, {"measurement": "Factor of inhibition", "setting": "Dam", "value": 5}]}
{"molecule": "GATC with 2AP at orphan Thy", "values": [{"measurement": "binding signal (fold fluorescence increase)", "setting": "[3]", "value": 6}]}
{"molecule": "SPR GATC oligonucleotide duplex", "values": [{"measurement": "binding signal (fold reduction vs wild type)", "setting": "[4]", "value": 10}, {"measurement": "binding signal (% of wild type binding)", "setting": "[5]", "value": 70}]}
{"molecule": "12-mer duplex I (dsDNA) DNA 1: ACAGGATCCTGT DNA 2: ACAGGATCCTGT", "values": [{"measurement": "binding result", "setting": "[6]", "value": "binds"}]}
{"molecule": "16-mer duplex (dsDNA) DNA 1: TCACAGGATCCTGTGA DNA 2: TCACAGGATCCTGTGA", "values": [{"measurement": "binding result", "setting": "[7]", "value": "binds"}]}
{"molecule": "13-mer duplex II (dsDNA) DNA 1: TGTCAGATCATGG DNA 2: ACCATGATCTGAC", "values": [{"measurement": "binding result", "setting": "[8]", "value": "binds"}]}
{"molecule": "EcoDam 12-mer (dsDNA) DNA 1: TCTAGATCTAGA DNA 2: TCTAGATCTAGA", "values": [{"measurement": "binding result", "setting": "[9]", "value": "binds"}]}
